The results in this text go back to the Human Domainome abundance scans (Beltran et al. 2025).

To fix the notation:
B1: Cold shock protein CspB, residues 1 to 66; numbered along this chain, P41016 (parent)
chain: MQRGKVKWFNNEKGYGFIEVEGGSDVFVHFTAIQGEGFKTLEEGQEVSFEIVQGNRGPQAANVVKL

± gives the uncertainty stated by the source.

In the data set the parent is B1. Kind of data set: abundance fitness (aPCA) (normalised: wild type 0, dead -1); higher = more abundant; growth selection in yeast, the domain comes from the species named. The conditions noted are these: Bacillus caldolyticus.
Consider I51G, for which the abundance fitness is -0.079 ± 0.042. Turning to I51A, the abundance fitness is -0.038 ± 0.042. Turning to I51M, the abundance fitness was found to be 0.023 ± 0.044.

For I51L, the abundance fitness is -0.003 ± 0.03. I51E: the abundance fitness was -0.026 ± 0.048. Regarding I51F, the abundance fitness is -0.082 ± 0.079.

On to I51K, for which the abundance fitness was -0.026 ± 0.05. With I51C, the abundance fitness was determined as 0.031 ± 0.084. Under I51H stands -0.019 ± 0.082; under S48W, -0.074 ± 0.066; under S48E, 0.027 ± 0.054.

Regarding S48Q, the abundance fitness was -0.007 ± 0.052. In the case of S48T, the abundance fitness came out at 0.002 ± 0.047.

Take S48V: the abundance fitness was -0.059 ± 0.041. Take S48F: the abundance fitness was -0.008 ± 0.063. In the case of S48N, the abundance fitness was -0.099 ± 0.089. Consider S48D, for which the abundance fitness amounted to 0.004 ± 0.06. Consider S48L, for which the abundance fitness was -0.035 ± 0.032. As for S48P, the abundance fitness is -0.847 ± 0.061. As for S48H, the abundance fitness is -0.023 ± 0.068. Under S48I stands -0.028 ± 0.074; under S48Y, 0.022 ± 0.069; under S48C, -0.047 ± 0.061. S48G: the abundance fitness was -0.005 ± 0.043. On to S48A, for which the abundance fitness was 0.003 ± 0.041. On to S48M, for which the abundance fitness came to 0.026 ± 0.05.

F49P: the abundance fitness is -0.984 ± 0.079.

For F49D, the abundance fitness is -1.08 ± 0.16. For F49K, the abundance fitness is -1.08 ± 0.13. Under F49M stands -0.002 ± 0.044; under F49V, -0.076 ± 0.03; under F49E, -0.965 ± 0.11. Consider F49C, for which the abundance fitness was -0.021 ± 0.089.

As to F49I, the abundance fitness is -0.123 ± 0.08. Consider F49N, for which the abundance fitness was -1.05 ± 0.21. For the variant F49S, the abundance fitness was -0.577 ± 0.045. Under F49Y stands -0.037 ± 0.083; under F49Q, -0.893 ± 0.094.

As for F49H, the abundance fitness is -0.445 ± 0.09. Consider F49R, for which the abundance fitness was -0.968 ± 0.088. Turning to F49W, the abundance fitness was -0.69 ± 0.074.

In the case of F49T, the abundance fitness is -0.27 ± 0.045.

F49L: the abundance fitness was -0.007 ± 0.029. For the variant E50S, the abundance fitness is -0.029 ± 0.036. Under E50F stands -0.029 ± 0.051; under E50T, 0.01 ± 0.06.

As for E50M, the abundance fitness was -0.017 ± 0.058. Under E50G stands -0.032 ± 0.032; under E50R, -0.002 ± 0.036; under E50W, -0.013 ± 0.043. Consider E50I, for which the abundance fitness was -0.049 ± 0.066. For E50P, the abundance fitness is -0.964 ± 0.11. For E50L, the abundance fitness is -0.016 ± 0.035.

With E50H, the abundance fitness was -0.07 ± 0.076. Consider E50K, for which the abundance fitness is -0.008 ± 0.066. With E50C, the abundance fitness is -0.007 ± 0.053. Take E50D: the abundance fitness was found to be 0.016 ± 0.065. Under E50V stands -0.018 ± 0.036; under E50Y, 0.005 ± 0.059. With E50Q, the abundance fitness was determined as 0 ± 0.052. Take L41S: the abundance fitness was -0.433 ± 0.039.

As for L41F, the abundance fitness is -0.199 ± 0.047. As to L41P, the abundance fitness is -0.46 ± 0.044. Under L41T stands -0.299 ± 0.037. Under L41V stands -0.042 ± 0.033. On to L41H, for which the abundance fitness was -0.616 ± 0.063. For the variant L41K, the abundance fitness is -0.721 ± 0.047. On to L41R, for which the abundance fitness is -0.625 ± 0.03. In the case of L41M, the abundance fitness was -0.01 ± 0.04. Take L41Y: the abundance fitness was -0.368 ± 0.061. As to L41G, the abundance fitness was -0.355 ± 0.034.

For the variant L41W, the abundance fitness was -0.359 ± 0.033. On to L41I, for which the abundance fitness came to 0.003 ± 0.064.

Turning to L41N, the abundance fitness was -0.515 ± 0.062. Under E43G stands 0.04 ± 0.04. Turning to E43W, the abundance fitness is -0.045 ± 0.034. On to E43M, for which the abundance fitness is 0.022 ± 0.056. As to E43V, the abundance fitness is -0.033 ± 0.05. Consider E43T, for which the abundance fitness was 0.025 ± 0.052. Consider E43R, for which the abundance fitness came out at 0.032 ± 0.039. As to E43Q, the abundance fitness was 0.025 ± 0.058. E43H: the abundance fitness is 0.03 ± 0.087. Consider E43P, for which the abundance fitness is 0.004 ± 0.045. Then E43Y, with -0.017 ± 0.078; and E43C, with 0.032 ± 0.092. Then E43I, with -0.031 ± 0.065; and E43S, with -0.014 ± 0.038. Under E43K stands 0.059 ± 0.069; under E43A, 0.023 ± 0.047; under E43N, 0.01 ± 0.076. On to E43L, for which the abundance fitness was -0.012 ± 0.034. For Q45T, the abundance fitness is -0.038 ± 0.05. As for Q45E, the abundance fitness is -0.003 ± 0.047. Take Q45D: the abundance fitness was -0.104 ± 0.085. As for Q45Y, the abundance fitness was -0.072 ± 0.12. As for Q45L, the abundance fitness is -0.021 ± 0.03. Under Q45N stands -0.005 ± 0.082. As to Q45G, the abundance fitness is 0.032 ± 0.042. Consider Q45F, for which the abundance fitness is -0.097 ± 0.082. Turning to Q45C, the abundance fitness was -0.031 ± 0.07. Turning to Q45I, the abundance fitness was -0.09 ± 0.075. Q45R: the abundance fitness was -0.039 ± 0.035. Regarding Q45P, the abundance fitness is -0.655 ± 0.051. For Q45W, the abundance fitness was -0.023 ± 0.034.

Regarding Q45A, the abundance fitness was found to be 0.021 ± 0.042. As for Q45M, the abundance fitness is -0.032 ± 0.057. In the case of Q45V, the abundance fitness was -0.063 ± 0.039.

Take Q45H: the abundance fitness is -0.036 ± 0.077. With Q45S, the abundance fitness is -0.029 ± 0.038. For E46L, the abundance fitness stood at 0.014 ± 0.03. E46K: the abundance fitness was -0.004 ± 0.055. On to E46F, for which the abundance fitness was -0.025 ± 0.044. On to E46W, for which the abundance fitness is -0.035 ± 0.043. With E46T, the abundance fitness was -0.053 ± 0.048. Under E46A stands -0.018 ± 0.052; under E46M, 0.006 ± 0.048; under E46P, -0.023 ± 0.049. For the variant E46Q, the abundance fitness is -0.012 ± 0.051.

For E46D, the abundance fitness was -0.153 ± 0.084. With E46V, the abundance fitness is -0.031 ± 0.037. As for E46H, the abundance fitness is -0.043 ± 0.059. E46G: the abundance fitness was -0.017 ± 0.04.

Take E46R: the abundance fitness is -0.014 ± 0.029. Regarding E46S, the abundance fitness turned out to be 0.015 ± 0.034. Under E46C stands -0.046 ± 0.053; under E46I, -0.071 ± 0.058; under V47M, -0.702 ± 0.48. Then V47A, with -0.215 ± 0.25. Turning to V47L, the abundance fitness was -0.332 ± 0.23. On to V47S, for which the abundance fitness is -0.866 ± 0.38. For V47Q, the abundance fitness is -0.935 ± 0.36.

In the case of V47G, the abundance fitness is -0.623 ± 0.26. In the case of V47I, the abundance fitness was 0.065 ± 0.14. Turning to G44H, the abundance fitness amounted to 0.014 ± 0.083.

Take G44I: the abundance fitness was -0.567 ± 0.077. Consider G44K, for which the abundance fitness is -0.041 ± 0.055. In the case of G44Y, the abundance fitness is -0.066 ± 0.066. Under G44P stands -0.311 ± 0.051. With G44A, the abundance fitness is -0.049 ± 0.037.

For the variant G44C, the abundance fitness came out at 0.005 ± 0.052.

Turning to G44E, the abundance fitness was -0.05 ± 0.054. With G44T, the abundance fitness is -0.093 ± 0.052. Regarding G44R, the abundance fitness is -0.013 ± 0.034. Turning to G44M, the abundance fitness was -0.043 ± 0.047. Regarding G44W, the abundance fitness is -0.111 ± 0.033. Take G44L: the abundance fitness was -0.076 ± 0.031. Take G44F: the abundance fitness was -0.126 ± 0.059. Take G44S: the abundance fitness was -0.029 ± 0.042. Consider G44V, for which the abundance fitness is -0.344 ± 0.031. Then G44D, with 0.019 ± 0.099; and G44N, with -0.086 ± 0.1. As to E42Q, the abundance fitness amounted to 0.043 ± 0.066. Regarding E42K, the abundance fitness was determined as 0.017 ± 0.06. Consider E42L, for which the abundance fitness is -0.006 ± 0.031.

As for E42A, the abundance fitness turned out to be 0.018 ± 0.041. Then E42T, with -0.011 ± 0.052; and E42H, with 0.008 ± 0.11; and E42N, with -0.02 ± 0.065.

For E42P, the abundance fitness is -0.043 ± 0.042. As to E42F, the abundance fitness was -0.048 ± 0.049. Consider E42C, for which the abundance fitness is -0.013 ± 0.064.

For E42M, the abundance fitness is -0.006 ± 0.048.

On to E42Y, for which the abundance fitness was -0.036 ± 0.059.

E42G: the abundance fitness is -0.001 ± 0.036. As for E42V, the abundance fitness was -0.008 ± 0.028.

In the case of E42I, the abundance fitness was -0.051 ± 0.055. E42D: the abundance fitness came out at 0.004 ± 0.072.
